Data set [1] deals with luciferase reporter gene linked to a 5′ her2 UTR. Put plainly: luciferase constructs with 3′ her2 UTR variants transfected into SKBR3 cells. The data set is classed as cell-based. The note with it: 48 hours after transfection. The method, then:
A luciferase reporter gene is linked to 3′ her2 UTR variants to make various constructs (see FIG. 6). Each construct is transfected into cell-lines, SKBR3 cells in particular, using Fugene® (Hoffmann-La Roche Inc., Nutley, N.J.), and the luciferase activity is measured 48 hours after transfection. The results are expressed as a fold-increase in luciferase activity over the repression caused by a 5′ her2 UTR (SEQ ID NO: 6) linked to the luciferase reporter gene (see FIG. 6). A 5′ her2 UTR represses translation of a reporter gene, such as luciferase.

Another data set relates to 48-kDa polypeptide. Put plainly: UV-crosslinking of 32P-labeled RNA with SKBR3 cytoplasmic extracts. The data set is classed as binding. The note with it: for competition for binding of the 48-kDa polypeptide to full-length, labeled Her2 3′ UTR: FIG. 10B; for UV-crosslinking of the 48-kDa polypeptide to labeled RNA: SKBR3 cytoplasmic extracts, FIG. 10A. The protocol:
Total protein from cancer cell lines is incubated with 10 fmoles of ^32P-UTP-labeled RNA for 1 hour at 37° C. in a final volume of 20 μl using Binding Buffer (20 mM Hepes-KOH, pH 7.5, 2.5 mM MgCl2, 100 mM KCl, 20% glycerol, 0.5 mM dithiothreitol, protease inhibitor tablets). Reaction mixtures are UV-irradiated at 254 nm for 10 minutes with a StrataLinker® 11800 (Stratagene; La Jolla, Calif.) in Costar® 96-Well Cell Culture Clusters (CORNING COSTAR Co., Cambridge, Mass.) on ice. The reaction mixtures are then treated with RNAse A (2 mg/ml) for 30 minutes at 37° C. The samples are analyzed by 12% or 10-14% Criterion™ gels (Bio-Rad Laboratories, Inc., Hercules, Calif.) by Sodium Dodecyl Sulfate-Polyacrylamide gel electrophoresis (SDS-PAGE) and are detected by autoradiography.
To study the role of trans-acting factors in modulating interactions between 5′ and 3′ UTRs, in vitro transcripts are synthesized, labeled, and incubated with cytoplasmic extracts from SKBR3 cells. After UV-crosslinking, unprotected areas of labeled RNA are digested with RNAse A, and the remaining labeled RNA molecules are resolved on SDS-PAGE.
Instead, a minimal binding region of […], corresponding to the nucleotide sequence from residue 490 to residue 510 of a 3′ Her2 UTR, is essential for the 48-kDa polypeptide to UV-crosslink to a Her2 3′ UTR. […] In comparison, competition with a 500-fold molar excess of nucleic acid molecules with sequences derived from the Her2 5′ UTR is ineffective in titrating out the 48-kDa polypepide.

For data set [2], the system named is capped-5′+3′ UTR-luciferase RNA. Kind of data set: in vitro rabbit reticulocyte translation of capped reporter RNA in the presence of competitor RNA. The data set is classed as biochemical. The note with it: for inhibition of translation of capped-5′+3′ UTR-luciferase RNA relative to absence of competitor RNA: 5-fold molar excess of competitor RNA, 60 minutes at 37° C., FIG. 1. The protocol: A 73-residue region from a 3′ her2 UTR (SEQ ID NO: 1) and an N-terminal 310-residue region from a 3′ her2 UTR (SEQ ID NO: 5) are cloned into a construct downstream of a T7-promoter. RNA encoded for by these regions is synthesized using a T7-in vitro transcription kit (Ambion, Inc.; Austin, Tex.).
To quantitate the maximum level of translation, a capped-5′+3′ UTR-luciferase RNA (0.057 pmoles) is translated in an in vitro rabbit reticulocyte translation system for 60 minutes at 37° C. Then, a capped-5′+3′ UTR-luciferase RNA is translated in the presence of between a 5- to 500-fold molar excess of RNA from either the 73-residue region from a 3′ her2 UTR (SEQ ID NO: 1) or the N-terminal 310-residue region from a 3′ her2 UTR (SEQ ID NO: 5) under the same conditions.
Capped, in vitro-transcribed Her2 5′ UTR-luciferase-Her2 3′ UTR (5H3H-Luc) and vector only-luciferase (Vector-Luc) are translated in the presence or absence of competitor RNA fragments derived from a Her-2 3′ UTR. Nucleic acid molecules derived from nucleotides 468-540 of a Her2 3′ UTR (468-540) and from residues 468-615 of a Her2 3′ UTR (468-615) each contain the 73-nucleotide sequence (SEQ ID NO:1) essential for suppression of 5′ Her2 UTR repression. […] The percentage of inhibition of expression is less in the presence of the 1-310 fragment with respect to the percentage of inhibition of expression in the presence of either of the nucleic acid molecules containing SEQ ID NO: 1, 468-615 and 468-540. The percentage of inhibition for the 1-310 fragment is dose-dependent, whereas even at only a 5-fold molar excess of competitor RNA conatining SEQ ID NO: 1, expression is only at 25% of the maximum level of translation.

Data set [3] concerns luciferase reporter gene linked to a 5′ her2 UTR. Put plainly: luciferase reporter constructs with her2 UTRs transfected into a panel of cell lines. The data set is classed as cell-based. The note with it: luciferase activity 48 hours after transfection. The method, then:
A luciferase reporter gene is linked to her2 UTRs to make various constructs (see FIG. 2). Each construct is transfected into a panel of cell-lines using Fugene® (Hoffmann-La Roche Inc., Nutley, N.J.), and the luciferase activity is measured 48 hours after transfection. The results are expressed as a fold-increase in luciferase activity over the repression caused by the 5′ her2 UTR linked to the luciferase reporter gene. A 5′ her2 UTR (SEQ ID NO: 6) represses translation of a luciferase reporter gene. […] The greatest modulation is observed in the mammalian cancer cell lines that over-express Her2 protein, SKBR-3 and BT-474, about 13-fold and about 10-fold, respectively, showing that the efficiency of translation of a luciferase reporter gene mRNA in Her2 positive cells is regulated by interactions of regions in the 5′ her2 UTR and the 3′ her2 UTR. Moreover, the effect is more pronounced in high Her2 expressing cells relative to low Her2 expressing cell lines, especially for breast cancer cells.

Another data set has as its system Ship-2 uORF. Kind of data set: chimeric luciferase constructs with Ship-2 5′ UTR in SKBR3 cells. The data set is classed as cell-based. The note with it: in combination with a Ship-2 5′ UTR, FIG. 7. The text has this:
Ship-2 mRNA contains a 33 nucleotide uORF (encoding 10 amino acids) that is located 14 nucleotides upstream of the main ORF. The uORF strongly represses translation of the main ORF.
The presence of TRE1 in the 3′ UTR, when in combination with a Ship-2 5′ UTR, increases expression of luciferase about 5-fold relative to luciferase being flanked by 3′ and 5′ Ship-2 UTRs. Luciferase expression increases when flanked by a 5′ Ship-2 UTR and a chimeric 3′ UTR, consisting of 328 residues of Ship-2 3′ UTR flanked by the 5′ and 3′ end seqeunces of the Her-23′ UTR, relative to luciferase being flanked by 3′ and 5′ Ship-2 UTRs. […] The presence of the 3′ Her2 UTR residues 1-110 (SEQ ID NO: 28) in the chimeric 3′ UTR results in a slight increase in luciferase expression relative to 3′ Ship-2 UTR. Suppression of translational repression occurs in cells with chimeric constructs expressing a Ship-2 3′ UTR containing only TRE1 (SEQ ID NO: 1) from a Her-23′ UTR.

B1: SEQ ID NO: 29: Her2 3′ UTR variant with nucleotides 1-110 deleted at the 5′ end, in a luciferase construct (nucleic acid)
DNA: CCTGCCATGCCAGGAACCTGTCCTAAGGAACCTTCCTTCCTGCTTGAGTTCCCAGATGGCTGGAAGGGGTCCAGCCTCGTTGGAAGAGGAACAGCACTGGGGAGTCTTTGTGGATTCTGAGGCCCTGCCCAATGAGACTCTAGGGTCCAGTGGATGCCACAGCCCAGCTTGGCCCTTTCCTTCCAGATCCTGGGTACTGAAAGCCTTAGGGAAGCTGGCCTGAGAGGGGAAGCGGCCCTAAGGGAGTGTCTAAGAACAAAAGCGACCCATTCAGAGACTGTCCCTGAAACCTAGTACTGCCCCCCATGAGGAAGGAACAGCAATGGTGTCAGTATCCAGGCTTTGTACAGAGTGCTTTTCTGTTTAGTTTTTACTTTTTTTGTTTTGTTTTTTTAAAGACGAAATAAAGACCCAGGGGAGAATGGGTGTTGTATGGGGAGGCAAGTGTGGGGGGTCCTTCTCCACACCCACTTTGTCCATTTGCAAATATATTTTGGAAAAC
modifications: luciferase construct
notes: Her2 3′ UTR variant with nucleotides 1-110 deleted at the 5′ end, in a luciferase construct
Regarding B1, in data set [1], the “fold-increase in luciferase expression over 5′ her2 UTR+Luc” value came to 1.7±0.9 fold.

B2: Her2 5′ UTR: naturally occurring Her2 5′ UTR; RNA probe and competitor in UV-crosslinking (nucleic acid)
DNA: GGCTGCTTGAGGAAGTATAAGAATGAAGTTGTGAAGCTGAGATTCCCCTCCATTGGGACCGGAGAAACCAGGGGAGCCCCCCGGGCAGCCGCGCGCCCCTTCCCACGGGGCCCTTTACTGCGCCGCGCGCCCGGCCCCCACCCCTCGCAGCACCCCGCGCCCCGCGCCCTCCCAGCCGGGTCCAGCCGGAGCCATGGGGCCGGAGCCGCAGTGAGCACC
For the molecule B2, in the data set on 48-kDa polypeptide (500-fold molar excess of competitor), the “competition for binding of the 48-kDa polypeptide to full-length, labeled Her2 3′ UTR” value is reported as “ineffective”. Also, the “UV-crosslinking of the 48-kDa polypeptide to labeled RNA” value (shortened to “UV-crosslinking”) in the data set with 48-kDa polypeptide is on record as “does not crosslink”.

B3: SEQ ID NO: 5: first 310 nucleotides of the Her2 3′ UTR, does not contain SEQ ID NO: 1; competitor RNA (nucleic acid)
DNA: TGAACCAGAAGGCCAAGTCCGCAGAAGCCCTGATGTGTCCTCAGGGAGCAGGGAAGGCCTGACTTCTGCTGGCATCAAGAGGTGGGAGGGCCCTCCGACCACTTCCAGGGGAACCTGCCATGCCAGGAACCTGTCCTAAGGAACCTTCCTTCCTGCTTGAGTTCCCAGATGGCTGGAAGGGGTCCAGCCTCGTTGGAAGAGGAACAGCACTGGGGAGTCTTTGTGGATTCTGAGGCCCTGCCCAATGAGACTCTAGGGTCCAGTGGATGCCACAGCCCAGCTTGGCCCTTTCCTTCCAGATCCTGGGTAC
B3: the “inhibition of translation of capped-5′+3′ UTR-luciferase RNA relative to absence of competitor RNA” value in data set [2] is reported as “not significantly inhibited”. Besides, the “percentage of inhibition of expression, dependence on amount of competitor” value in data set [2] (competitor RNA, FIG. 9) is “dose-dependent”.

B4: 3′ her2 UTR: naturally occurring Her2 3′ UTR, linked downstream of luciferase in reporter constructs (nucleic acid)
DNA: TGAACCAGAAGGCCAAGTCCGCAGAAGCCCTGATGTGTCCTCAGGGAGCAGGGAAGGCCTGACTTCTGCTGGCATCAAGAGGTGGGAGGGCCCTCCGACCACTTCCAGGGGAACCTGCCATGCCAGGAACCTGTCCTAAGGAACCTTCCTTCCTGCTTGAGTTCCCAGATGGCTGGAAGGGGTCCAGCCTCGTTGGAAGAGGAACAGCACTGGGGAGTCTTTGTGGATTCTGAGGCCCTGCCCAATGAGACTCTAGGGTCCAGTGGATGCCACAGCCCAGCTTGGCCCTTTCCTTCCAGATCCTGGGTACTGAAAGCCTTAGGGAAGCTGGCCTGAGAGGGGAAGCGGCCCTAAGGGAGTGTCTAAGAACAAAAGCGACCCATTCAGAGACTGTCCCTGAAACCTAGTACTGCCCCCCATGAGGAAGGAACAGCAATGGTGTCAGTATCCAGGCTTTGTACAGAGTGCTTTTCTGTTTAGTTTTTACTTTTTTTGTTTTGTTTTTTTAAAGACGAAATAAAGACCCAGGGGAGAATGGGTGTTGTATGGGGAGGCAAGTGTGGGGGGTCCTTCTCCACACCCACTTTGTCCATTTGCAAATATATTTTGGAAAAC
B4: the “Fold-increase over 5′ UTR Average” value is 1.54 ± 1.0 in data set [3] (293T), 2.23 ± 0.5 in data set [3] (HeLa) and 2 ± 0.5 in data set [3] (Hs578.1). In the data set with 48-kDa polypeptide, the “UV-crosslinking” value is “crosslinks”.

B5: SEQ ID NO: 1: 73-residue region (residues 468-540) from a 3′ her2 UTR, translational regulatory element TRE1; used as competitor RNA (nucleic acid)
DNA: CTTTTCTGTTTAGTTTTTACTTTTTTTGTTTTGTTTTTTTAAAGACGAAATAAAGACCCAGGGGAGAATGGGT
modifications: competitor RNA from UTR region, further chemistry not given here
Take B5: in the data set on 48-kDa polypeptide (50-fold molar excess of unlabeled competitor), the “competition for binding of the 48-kDa polypeptide to full-length, labeled Her2 3′ UTR” value is listed as “prevents binding”. For the same molecule, the “UV-crosslinking” value in the data set on 48-kDa polypeptide is reported as “crosslinks”. The “inhibition of translation of capped-5′+3′ UTR-luciferase RNA relative to absence of competitor RNA” value in data set [2] is on record as “about 75%”. The “increase of luciferase expression relative to luciferase flanked by 3′ and 5′ Ship-2 UTRs” value with Ship-2 uORF is given as “about 5 fold”.

The values are drawn from patent US20070072186A1, “Methods and agents for screening for compounds capable of modulating her2 expression” (priority 2003, published 2007).
